According to patent US20220119784:

Experiments:
[1] = system: PDCD-1 megaTAL parent (Artificial Sequence); experiment: cell_activity; details: primary human T cells, mRNA electroporation, TIDE
[2] = system: PDCD-1 megaTAL thermostable variant (Artificial Sequence); experiment: cell_activity; details: nearly 80%; primary human T cells, mRNA electroporation, TIDE

PDCD-1 target site
activity [1]: < 20 % editing
activity [2]: 80 % editing
